Data as given in paper doi:10.1101/2022.01.19.476979 (bioRxiv, 2022).

Legend:
[1] = biological target: FHH-tagged MAB21L4, recombinant purified (human, UniProt Q08AI8 1-447, RED-tris-NTA 2nd generation dye (Monolith His-Tag labeling kit)); experiment: MST
[2] = biological target: T1, FHH-tagged Siah1, recombinant purified (UniProt Q8IUQ4 1-282, RED-tris-NTA 2nd generation dye (Monolith His-Tag labeling kit)); experiment: MST
T1 sequence (looked up): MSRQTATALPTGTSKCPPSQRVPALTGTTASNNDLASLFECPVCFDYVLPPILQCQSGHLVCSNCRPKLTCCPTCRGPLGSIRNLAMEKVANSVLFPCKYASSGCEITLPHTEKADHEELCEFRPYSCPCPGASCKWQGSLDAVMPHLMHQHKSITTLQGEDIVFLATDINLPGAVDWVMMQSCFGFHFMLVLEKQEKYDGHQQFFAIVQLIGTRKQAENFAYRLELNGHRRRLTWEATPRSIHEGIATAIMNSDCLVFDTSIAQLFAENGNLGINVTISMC

Sequence of FHH-tagged MAB21L4, recombinant purified (Q08AI8 whole entry): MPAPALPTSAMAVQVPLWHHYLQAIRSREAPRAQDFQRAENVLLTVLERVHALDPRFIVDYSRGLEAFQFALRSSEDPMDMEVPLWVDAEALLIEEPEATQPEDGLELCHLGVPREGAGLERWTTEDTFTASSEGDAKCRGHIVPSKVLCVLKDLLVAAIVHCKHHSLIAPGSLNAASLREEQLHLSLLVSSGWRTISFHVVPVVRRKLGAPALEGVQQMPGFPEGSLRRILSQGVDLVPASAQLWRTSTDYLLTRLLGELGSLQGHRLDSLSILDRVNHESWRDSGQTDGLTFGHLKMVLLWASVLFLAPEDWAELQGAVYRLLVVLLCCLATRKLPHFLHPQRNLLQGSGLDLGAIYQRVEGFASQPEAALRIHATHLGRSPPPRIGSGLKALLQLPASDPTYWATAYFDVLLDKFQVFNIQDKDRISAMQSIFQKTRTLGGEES

B1: n-terminus FLAG-tagged CacyBP, recombinant purified (natural protein, UniProt Q9HB71 1-228, looked up)
chain: MASEELQKDLEEVKVLLEKATRKRVRDALTAEKSKIETEIKNKMQQKSQKKAELLDNEKPAAVVAPITTGYTVKISNYGWDQSDKFVKIYITLTGVHQVPTENVQVHFTERSFDLLVKNLNGKSYSMIVNNLLKPISVEGSSKKVKTDTVLILCRKKVENTRWDYLTQVEKECKEKEKPSYDTETDPSEGLMNVLKKIYEDGDDDMKRTINKAWVESREKQAKGDTEF
B1 was tested, and the Kd [1] was 2.1 µM and the Kd [2] was 9.8 µM.
